Holding throughout (experiment): crystal structure
The target of assay [1] is Q0, fused 4-oxalocrotonate tautomerase from Bordetella trematum (Bordetella trematum).
Assay [2] addresses W0, fused 4-oxalocrotonate tautomerase from Advenella mimigardefordensis DPN7 (Advenella mimigardefordensis DPN7).
Assay [3] has as its target R7, fused 4-oxalocrotonate tautomerase from Burkholderia sp. RPE67 (Burkholderia sp. RPE67).
For assay [4], the target named is F6, fused 4-oxalocrotonate tautomerase from Caballeronia arationis (Caballeronia arationis).

“Q0, fused 4-oxalocrotonate tautomerase from Bordetella trematum (enzyme)” yielded a stoichiometry N in assay [1] of 3.

On to “W0, fused 4-oxalocrotonate tautomerase from Advenella mimigardefordensis DPN7 (enzyme)”, for which, in assay [2], the stoichiometry N was determined as 3.

In turn, “R7, fused 4-oxalocrotonate tautomerase from Burkholderia sp. RPE67 (enzyme)” came in with a stoichiometry N in assay [3] of 3.

In turn, “F6, fused 4-oxalocrotonate tautomerase from Caballeronia arationis (enzyme)” registered a stoichiometry N in assay [4] of 3.

By stoichiometry N is commonly meant a count of units in the complex or per binding partner.

(Values after article PMC7254967.)
